Measured values taken from publication PMC10781630, “Structural basis of Gabija anti-phage defence and viral immune evasion” (Nature, 2023).

Assays:
[1] = biological target: Bacillus cereus VD045 GajB, untagged, co-expressed with tagged GajA (Bacillus cereus VD045) (UniProt J8HQ06); assay: crystal structure; co-expressed and co-purified GajAB, 3.0 Å; hanging drop, 18 °C, 100 mM HEPES-NaOH pH 7.5, 2.4% PEG-400, 2.2 M ammonium sulfate
[2] = biological target: T1, Bacillus cereus VD045 GajA, co-expressed with GajB, tag removed (subunit of the GajAB complex) (Bacillus cereus VD045, UniProt J8H9C1 2-578); assay: as above; settings: both partners purified
T1 construct: GajA, Bacillus cereus VD045, IMG ID 2519684552; the 5×GS linker may stay on GajA after SENP2 cleavage; also called BcGajA; source: E. coli BL21(DE3) strains, co-expressed with GajB, purified (Ni-NTA, SUMO2 cleavage by hSENP2, SEC); not shown: 6×His-SUMO2-5×GS, N-terminal, cleaved
T1 sequence: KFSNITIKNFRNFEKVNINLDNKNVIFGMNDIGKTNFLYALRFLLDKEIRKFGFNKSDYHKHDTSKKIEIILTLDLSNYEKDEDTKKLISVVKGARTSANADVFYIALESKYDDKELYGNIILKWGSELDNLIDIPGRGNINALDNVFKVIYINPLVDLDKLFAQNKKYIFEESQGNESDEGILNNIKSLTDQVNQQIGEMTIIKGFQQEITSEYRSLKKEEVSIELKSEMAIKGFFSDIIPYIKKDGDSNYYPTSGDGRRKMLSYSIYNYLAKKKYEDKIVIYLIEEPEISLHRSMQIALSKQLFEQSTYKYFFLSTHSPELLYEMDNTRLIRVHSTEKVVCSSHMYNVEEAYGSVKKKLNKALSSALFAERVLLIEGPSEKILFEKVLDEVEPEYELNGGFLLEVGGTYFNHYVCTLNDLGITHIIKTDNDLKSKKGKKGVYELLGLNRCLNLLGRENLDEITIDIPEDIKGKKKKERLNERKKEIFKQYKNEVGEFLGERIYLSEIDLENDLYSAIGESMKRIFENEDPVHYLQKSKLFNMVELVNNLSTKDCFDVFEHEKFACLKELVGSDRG

[3] = biological target: the molecule itself; assay: SEC; 16/600 S200 (Superdex 200); recombinant BcGajA and BcGajB each run alone
[4] = biological target: T2, SUMO2-tagged GajAB complex (Bacillus cereus VD045), 4:4 (Bacillus cereus VD045, UniProt J8H9C1 2-578; J8HQ06 1-494); assay: cryo-EM structure; SUMO2-GajAB–Gad1 (Phi3T) co-complex, 1 mg ml^-1, 2.57 Å D2 symmetry map; settings: both partners purified
T2 construct: GajA, Bacillus cereus VD045, IMG ID 2519684552; GajB, Bacillus cereus VD045, IMG ID 2519684553; also called SUMO2-GajAB; SUMO2-tagged BcGajAB; source: E. coli, co-expressed, purified (Ni-NTA, SEC); not shown: 6×His-SUMO2, N-terminal, kept; copies: 4 + 4
T2 sequence 1: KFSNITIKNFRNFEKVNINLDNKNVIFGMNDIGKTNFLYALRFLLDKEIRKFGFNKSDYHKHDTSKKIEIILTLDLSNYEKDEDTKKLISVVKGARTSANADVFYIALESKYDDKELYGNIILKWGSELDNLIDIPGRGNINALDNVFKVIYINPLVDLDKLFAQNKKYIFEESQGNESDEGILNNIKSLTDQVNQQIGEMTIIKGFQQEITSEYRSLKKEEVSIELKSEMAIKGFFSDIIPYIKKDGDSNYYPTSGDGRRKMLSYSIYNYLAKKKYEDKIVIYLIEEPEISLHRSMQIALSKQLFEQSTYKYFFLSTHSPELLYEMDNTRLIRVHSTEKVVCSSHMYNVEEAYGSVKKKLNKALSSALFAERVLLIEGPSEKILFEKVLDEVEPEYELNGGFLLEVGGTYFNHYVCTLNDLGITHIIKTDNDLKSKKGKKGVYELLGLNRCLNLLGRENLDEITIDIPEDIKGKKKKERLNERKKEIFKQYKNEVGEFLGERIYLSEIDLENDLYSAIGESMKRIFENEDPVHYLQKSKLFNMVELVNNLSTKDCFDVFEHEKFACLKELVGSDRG
T2 sequence 2: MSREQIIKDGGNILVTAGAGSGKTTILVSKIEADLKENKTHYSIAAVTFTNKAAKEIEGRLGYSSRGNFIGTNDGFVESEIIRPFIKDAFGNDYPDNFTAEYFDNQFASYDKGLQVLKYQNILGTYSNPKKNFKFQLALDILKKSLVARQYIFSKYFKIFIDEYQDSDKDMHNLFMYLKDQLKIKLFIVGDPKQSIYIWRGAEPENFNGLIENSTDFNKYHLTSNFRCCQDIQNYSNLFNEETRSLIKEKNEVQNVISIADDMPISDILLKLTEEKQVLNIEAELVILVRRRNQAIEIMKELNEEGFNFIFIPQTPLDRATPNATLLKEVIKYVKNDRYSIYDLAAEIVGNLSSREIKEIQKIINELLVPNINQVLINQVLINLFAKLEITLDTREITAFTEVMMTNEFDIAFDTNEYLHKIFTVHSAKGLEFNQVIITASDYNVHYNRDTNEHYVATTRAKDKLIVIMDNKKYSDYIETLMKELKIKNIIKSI

[5] = biological target: the molecule itself; assay: as above

B1: Bacillus cereus VD045 GajB, untagged, co-expressed with tagged GajA (enzyme)
chain: MSREQIIKDGGNILVTAGAGSGKTTILVSKIEADLKENKTHYSIAAVTFTNKAAKEIEGRLGYSSRGNFIGTNDGFVESEIIRPFIKDAFGNDYPDNFTAEYFDNQFASYDKGLQVLKYQNILGTYSNPKKNFKFQLALDILKKSLVARQYIFSKYFKIFIDEYQDSDKDMHNLFMYLKDQLKIKLFIVGDPKQSIYIWRGAEPENFNGLIENSTDFNKYHLTSNFRCCQDIQNYSNLFNEETRSLIKEKNEVQNVISIADDMPISDILLKLTEEKQVLNIEAELVILVRRRNQAIEIMKELNEEGFNFIFIPQTPLDRATPNATLLKEVIKYVKNDRYSIYDLAAEIVGNLSSREIKEIQKIINELLVPNINQVLINQVLINLFAKLEITLDTREITAFTEVMMTNEFDIAFDTNEYLHKIFTVHSAKGLEFNQVIITASDYNVHYNRDTNEHYVATTRAKDKLIVIMDNKKYSDYIETLMKELKIKNIIKSI
notes: GajB, Bacillus cereus VD045, IMG ID 2519684553; also called BcGajB; source: co-purified (Ni-NTA, SEC) or in lysate
stoichiometry N [1]: 2 | stoichiometry N [2]: 1 GajB per GajA (4:4)

B2: Bacillus cereus VD045 GajA (Gabija protein A), expressed alone (enzyme)
chain: KFSNITIKNFRNFEKVNINLDNKNVIFGMNDIGKTNFLYALRFLLDKEIRKFGFNKSDYHKHDTSKKIEIILTLDLSNYEKDEDTKKLISVVKGARTSANADVFYIALESKYDDKELYGNIILKWGSELDNLIDIPGRGNINALDNVFKVIYINPLVDLDKLFAQNKKYIFEESQGNESDEGILNNIKSLTDQVNQQIGEMTIIKGFQQEITSEYRSLKKEEVSIELKSEMAIKGFFSDIIPYIKKDGDSNYYPTSGDGRRKMLSYSIYNYLAKKKYEDKIVIYLIEEPEISLHRSMQIALSKQLFEQSTYKYFFLSTHSPELLYEMDNTRLIRVHSTEKVVCSSHMYNVEEAYGSVKKKLNKALSSALFAERVLLIEGPSEKILFEKVLDEVEPEYELNGGFLLEVGGTYFNHYVCTLNDLGITHIIKTDNDLKSKKGKKGVYELLGLNRCLNLLGRENLDEITIDIPEDIKGKKKKERLNERKKEIFKQYKNEVGEFLGERIYLSEIDLENDLYSAIGESMKRIFENEDPVHYLQKSKLFNMVELVNNLSTKDCFDVFEHEKFACLKELVGSDRG
notes: GajA, Bacillus cereus VD045, IMG ID 2519684552; gene codon-optimized and synthesized; the C-terminal 6×His construct is the only GajA-alone construct described; also called BcGajA; GajA alone; source: E. coli BL21(DE3) strains, purified (Ni-NTA, SEC); also co-expressed with Shewanella phage 1/4 Gad1, in lysate for Ni-NTA co-purification; not shown: 6×His, C-terminal, kept
stoichiometry N [3]: 4

B3: Bacillus phage Phi3T Gad1 (Gabija anti-defence 1) (natural protein)
chain: MKLIGIKTSNCFLVSDNIEGKRYFHSQLDELLFDGKRATETYKSDWFKLEKEPSVIEKQMPAKKINHRYELKEGFQESELTPKVIKASYIGEDSEYYEVKGLYDLKFEEIPQQNEKIEFEMNVIEEIDGELKLQSHNFNLNYNLLDRIQTHPMLLETKPCYLSQEESYKIIRNHIKANINPKFARITSDYDFCLTVVKVLELYKPHEYIVDLNAMYKRRKPKLEKRFQTKREVEIYKVAPKAYQSYPIVEPFSGKDVEDLKSNIKKFLDDLMAKINEPLVECKCCKGRGVILNEN
notes: Gad1, Bacillus phage Phi3T, 35 kDa; Eight copies stand in the 4:4:8 GajAB–Gad1 complex; source: E. coli, co-expressed with SUMO2-GajAB (pBAD vector), co-purified (Ni-NTA, SEC)
stoichiometry N [4]: 8 Gad1 per 4:4 GajAB complex | stoichiometry N [5]: 8
